Here are results for 32 sequences from the supplement of paper PMC10201428.

± gives the standard deviation of the averaged measurements.

This data set has as its system VchCAST RNA-guided transposition machinery (E. coli BL21(DE3) host, lacZ target). In words: relative integration efficiency (T-RL orientation) vs wild-type transposon end (log2 (normalized fold change)); transposon end mutated: right end (5 bp flank + 75 bp right end); higher = more efficient transposition. In short, it runs like this: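 Each barcoded pool, 1549 left-end or 1849 right-end transposon variants in a pUC57 mini-transposon donor, went into E. coli BL21(DE3) with a T7-driven effector plasmid (CRISPR array, tniQ-cas8-cas7-cas6, tnsA-tnsB-tnsC). Plates contained 0.1 mM IPTG and were held at 37°C for 18 h. Input plasmids and genomic integration junctions were PCR-amplified and read by Illumina sequencing, with two biological output replicates and four reference barcodes. Relative integration efficiency is the fold change of output over input barcode abundance, normalised to the reference barcodes and log-transformed.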
Take “ACATTTGTTGATACAACCATAAAATGATAATTAGAAACCATAATTGATAATTATCACACCCATAAATTGATATTGCCTCTGATCATAGTCAGACCAACATTGCTACGACCCGTATTCGCACCGACAC”: the “relative integration efficiency (log2)” value is -3.59 ± 0.08.

As to “ACATTTGTTCATACAACCCTAAAATGATAATTACACCCATAAATTCATAATTATCACACCCAATTTAACTATAACGCTCTGATCATAGTCAGACCAACATTGCTACGACCCGTATTCGCACCGACAC”, the “relative integration efficiency (log2)” value is -5.31 ± 0.95.

Take “ACATTTGTTGATACAACCATAAAATGATAATTACACCCATAAATTGATATTGCTCACACCCATAAATTGATAATTACTCTGATCATAGTCAGACCAACATTGCTACGACCCGTATTCGCACCGACAC”: the “relative integration efficiency (log2)” value is -0.432 ± 0.2.

With “ACATTTGTTGATACCACCATAAAATGGTAATTCCACCCCTACATTGATAATTATCACACCCAATTTAACTATAACGCTCTGATCATAGTCAGACCAACATTGCTACGACCCGTATTCGCACCGACAC”, the “relative integration efficiency (log2)” value was -4.47 ± 0.45.

As to “ACATTTGTTGATACACCCATAAATTGATATTGCCAACCATAAGTTGATATTTTTCACAACCATAAGTTGATATTTTCTCTGATCATAGTCAGACCAACATTGCTACGACCCGTATTCGCACCGACAC”, the “relative integration efficiency (log2)” value was -0.695 ± 0.095.

As for “ACATTTGTCGATCCAACCATAAAATGATAATTACACCCATAAATTGATCATTATCACACCCAATTTAACTATAACGCTCTGATCATAGTCAGACCAACATTGCTACGACCCGTATTCGCACCGACAC”, the “relative integration efficiency (log2)” value was -1.61 ± 0.25.

On to “ACATTTGTTGATACAACCAATAAAAGATTATTACCCCCATTAATTGATAATGATGACACCGAATTTAACTATAACGCTCTGATCATAGTCAGACCAACATTGCTACGACCCGTATTCGCACCGACAC”, for which the “relative integration efficiency (log2)” value was -4.62 ± 0.48.

For the sequence “ACATTTGTTGATACAACCCTAAAATGATAATTACACCCATAAATTCATAATTATCACCCCCAATTTAACTATAACGCTCTGATCATAGTCAGACCAACATTGCTACGACCCGTATTCGCACCGACAC”, the “relative integration efficiency (log2)” value is -4.15 ± 0.4.

In the case of “ACATTTGTTGATACAACCATATATTGATATCTCCAACCATAAAATGATAATTATCACACCCATAAATTGATAATTACTCTGATCATAGTCAGACCAACATTGCTACGACCCGTATTCGCACCGACAC”, the “relative integration efficiency (log2)” value is -0.0947 ± 0.0052.

“ACATTTGTTGATACAACCATAAAGTGATATTTACACCCATAAATTGATAATTATCAGTGGGTATTTAACTATAACGCTCTGATCATAGTCAGACCAACATTGCTACGACCCGTATTCGCACCGACAC”: the “relative integration efficiency (log2)” value is -0.826 ± 0.22.

As for “ACATTTGTCGATACAACCCTAAAATGATAATTACACCCATAAATGGATCATTATCACCCCCAATTTAACTATAACGCTCTGATCATAGTCAGACCAACATTGCTACGACCCGTATTCGCACCGACAC”, the “relative integration efficiency (log2)” value is -4.03 ± 0.42.

Take “ACATTTGTTGATACAACCATAAAATGATAATTAATAATTATTTCACCCATAAATTGATAATTATCAACAAACGCCCGGTCGCGGTACTCTGATCATAGTCAGACCAACATTGCTACGACCCGTATTC”: the “relative integration efficiency (log2)” value was -2.91 ± 0.43.

Regarding “ACATTTGTTGATACAACCATAAAATGATAATTAATAATTATTTATAATCAGCAACTTAACCACCACCCATAAATTGATAATTATCAACAAACGCCCGGTCGCGGTACTCTGATCATAGTCAGACCAA”, the “relative integration efficiency (log2)” value was -3.21 ± 0.38.

As to “ACATTTGCTGATACTACCATATAATGATAATAACACCCCTAAAATGATAATTATCACACCCAATTTAACTATAACGCTCTGATCATAGTCAGACCAACATTGCTACGACCCGTATTCGCACCGACAC”, the “relative integration efficiency (log2)” value is -4.12 ± 0.62.

With “ACATTTGTTGATACAACCATAAAATGATAATTAATACACCCATAAATTGATAATTATCAACAAACGCCCGGTCGCGGTACTCTGATCATAGTCAGACCAACATTGCTACGACCCGTATTCGCACCGA”, the “relative integration efficiency (log2)” value is -2.6 ± 0.28.

In the case of “ACATTTGTTGATACAACCAATAAATGATAATTACACCCATTAATTGATAATAATGACACCGAATTTAACTATAACGCTCTGATCATAGTCAGACCAACATTGCTACGACCCGTATTCGCACCGACAC”, the “relative integration efficiency (log2)” value is -1.48 ± 0.29.

With “ACATTTGTTGATACAACCATAAAATGATAATTACAACCATATATTGATATCTCTCACAACCATAAAGTGATATTTACTCTGATCATAGTCAGACCAACATTGCTACGACCCGTATTCGCACCGACAC”, the “relative integration efficiency (log2)” value is -0.5 ± 0.27.

For the sequence “ACATTTGTTGATACAACCATAAAAAGATAATTACACCCATAAATAGATAATTATCACACCCATAAATAGATATTGCCTCTGATCATAGTCAGACCAACATTGCTACGACCCGTATTCGCACCGACAC”, the “relative integration efficiency (log2)” value was -1.3 ± 0.18.

Regarding “ACATTTGTTGATACAACCATAAAATGATAATTACACCCATAAATTGATAATTATCACACCCATAAATTGCGCGGTAAGAGGATCATAGTCAGACCAACATTGCTACGACCCGTATTCGCACCGACAC”, the “relative integration efficiency (log2)” value was -0.4 ± 0.022.

“ACATTTGTTGATACAACCATAAAATGATAATTACACCCATAAATTGATAATTATCACACCCATAAATTGATATTGCCTCTGATCATAGTCAGACCACAACCATAAAATGATAATTAAGCACCGACAC”: the “relative integration efficiency (log2)” value is -0.0173 ± 0.24.

Regarding “ACATTTGTTGATACAACCATAAAATGATAAAATCACCCATAAATTGATAAAATTCACACCCATAAATTGATATACGCTCTGATCATAGTCAGACCAACATTGCTACGACCCGTATTCGCACCGACAC”, the “relative integration efficiency (log2)” value was -1.05 ± 0.087.

As to “ACATTTGTTGATACAACCATAAAATGAATTATACACCCATAAATTGATAATTATCACACCCATAAATTGATATTGCCTCTGATCATAGTCAGACCAACATTGCTACGACCCGTATTCGCACCGACAC”, the “relative integration efficiency (log2)” value was -0.7 ± 0.18.

For “ACATTTGTTGATACAACCATATAATGATAATAACACCCCTAAAATGATAATTATCACACCCAATTTAACTATAACGCTCTGATCATAGTCAGACCAACATTGCTACGACCCGTATTCGCACCGACAC”, the “relative integration efficiency (log2)” value is -2.99 ± 0.37.

For the sequence “ACATTTGTTCATCCAACCATAAAATGATAATTACACCCATAAATGGATAATTATCACACCCAATTTAACTATAACGCTCTGATCATAGTCAGACCAACATTGCTACGACCCGTATTCGCACCGACAC”, the “relative integration efficiency (log2)” value is -2.08 ± 0.37.

Take “ACATTTGTTGATACAACCATAAAACGATAATTACACCCATAAATTCATAATTATCACACCCAATTTAACTATAACGCTCTGATCATAGTCAGACCAACATTGCTACGACCCGTATTCGCACCGACAC”: the “relative integration efficiency (log2)” value is -2.21 ± 0.42.

For the sequence “ACATTTGTTGATACAACCATAAGTTGATATTTTCAACCATATATTGATATCTCTCACAACCATATATTGATATCTCCTCTGATCATAGTCAGACCAACATTGCTACGACCCGTATTCGCACCGACAC”, the “relative integration efficiency (log2)” value is -0.28 ± 0.11.

Consider “ACATTTGTTGATACAACCATAAAATGATAATTACACCCATAAATTGATAATTATCACACCCATAAATTGATATTGCCTGAGATCATAGTCAGACCAACATTGCTACGACCCGTATTCGCACCGACAC”, for which the “relative integration efficiency (log2)” value was 0.0616 ± 0.0024.

With “ACATTTGTTGATACCCCCATAAAATGATAATTACACCCATAAATTGATAATTATCACACCCATAAATTGATATTGCCTCTGATCATAGTCAGACCAACATTGCTACGACCCGTATTCGCACCGACAC”, the “relative integration efficiency (log2)” value was -0.828 ± 0.081.

Take “ACATTTGTTGATACAACCATAAAATTCTAATTACACCCATAAATTGATAATTATCACACCCATAAATTGATATTGCCTCTGATCATAGTCAGACCAACATTGCTACGACCCGTATTCGCACCGACAC”: the “relative integration efficiency (log2)” value was -1.85 ± 0.18.

With “ACATTTGTTGATACAACCATAAAATGATAATTAATAATTCACCCATAAATTGATAATTATCACACCCATAAATTGATATTGCCTCTGATCATAGTCAGACCAACATTGCTACGACCCGTATTCGCAC”, the “relative integration efficiency (log2)” value is -2.69 ± 0.18.

In the case of “ACATTGGTCGATACAACCATAAAATGATAATTACACCCATAAATTGATCATTATCACACCCAATTTAACTATAACGCTCTGATCATAGTCAGACCAACATTGCTACGACCCGTATTCGCACCGACAC”, the “relative integration efficiency (log2)” value is -7.023 ± 0.019.

In the case of “ACATTTGTTGATACAACCATAAAATGATAATTACACCCATAAATTGATAATTATCACACCCATAAATTGATATTGCCTCTGATAACTTCGTATAATGTATCGTATACGAACGGTATCGCACCGACAC”, the “relative integration efficiency (log2)” value was -0.379 ± 0.29.
